Ends that are not written are not given here. * marks the point of attachment. Biotin = O=C1N[C@H]2[C@H](CS[C@H]2CCCCC(=O)*)N1
How the values were obtained:
Assay in all cases: A/G assays
[1] = target: T1, GST-CASK PDZ domain fusion protein (CASK AA495-584; PDZ domain 1 of 1) (mouse, UniProt P08515 1-218 = GST)
T1 construct: also called mCASK

[2] = target: GST-LIM PDZ domain fusion protein (Human LIM protein AA29-112; PDZ domain 1 of 1) (human, UniProt P08515 1-218 = GST)
[3] = target: GST-LIMK2 PDZ domain fusion protein (human LIM domain kinase 2 AA185-275; PDZ domain 1 of 1) (human, UniProt P08515 1-218 = GST)
[4] = target: T2, GST-MPP2 PDZ domain fusion protein (maguk p55 subfamily member 2 (DLG2) AA185-273; PDZ domain 1 of 1) (UniProt P08515 1-218 = GST)
T2 construct: also called MMP2

[5] = target: GST-NOS1 PDZ domain fusion protein (human neuronal nitric oxide synthase; PDZ domain 1 of 1) (human, UniProt P08515 1-218 = GST)
[6] = target: GST-AF6 PDZ domain fusion protein (af-6 protein AA985-1077; PDZ domain 1 of 1) (UniProt P08515 1-218 = GST)
[7] = target: GST-PTN-4 PDZ domain fusion protein (protein-tyrosine phosphatase meg1 AA774-862; PDZ domain 1 of 1) (UniProt P08515 1-218 = GST)
[8] = target: GST-prIL16 PDZ domain fusion protein (putative interleukin 16 precursor AA170-383; PDZ domains 1-2 of 2) (UniProt P08515 1-218 = GST)
[9] = target: T3, GST-41.8 kD PDZ domain fusion protein (hypothetical 41.8 kD protein AA4-85; PDZ domain 1 of 1) (UniProt P08515 1-218 = GST)
T3 construct: also called hypoth

[10] = target: T4, GST-KIAA0559 PDZ domain fusion protein (KIAA0559 AA766-870; PDZ1 of 1) (UniProt P08515 1-218 = GST)
T4 construct: also called K559

[11] = target: GST-MPP1 PDZ domain fusion protein (55 Kd erythrocyte membrane protein AA101-186; PDZ domain 1 of 1) (UniProt P08515 1-218 = GST)
[12] = target: T5, GST-RGS12 PDZ domain fusion protein (human regulator of G-protein signalling 12 AA35-103; PDZ domain 1 of 1) (human, UniProt P08515 1-218 = GST)
T5 construct: also called RSG12

[13] = target: T6, GST-KIAA0316 PDZ domain fusion protein (KIAA0316 AA197-284; PDZ domain 1 of 1) (UniProt P08515 1-218 = GST)
T6 construct: also called K316

[14] = target: GST-DVL1 PDZ domain fusion protein (human dishevelled segment polarity protein homolog AA248-340); PDZ domain … (human, UniProt P08515 1-218 = GST)
[15] = target: T7, GST-TAX40 PDZ domain fusion protein (human tax interaction protein 40 AA35-137; PDZ domain 1 of 1) (human, UniProt P08515 1-218 = GST)
T7 construct: also called TX 40

[16] = target: GST-TIAM1 PDZ domain fusion protein (T-lymphoma invasion and metastasis inducing protein 1 AA1001-1088); PDZ 1 … (UniProt P08515 1-218 = GST)
[17] = target: T8, GST-KIAA0303 PDZ domain fusion protein (KIAA0303 AA652-742; PDZ domain 1 of 1) (UniProt P08515 1-218 = GST)
T8 construct: also called K303

[18] = target: T9, GST-CBP PDZ domain fusion protein (Cytohesin binding protein HE AA85-175; PDZ domain 1 of 1) (UniProt P08515 1-218 = GST)
T9 construct: also called Prot

[19] = target: GST-MINT3 PDZ domain fusion protein (human MINT3 AA11-52; PDZ domain 1 of 1) (human, UniProt P08515 1-218 = GST)
[20] = target: T10, GST-TAX2 PDZ domain fusion protein (human tax interaction protein 2 AA54-140; PDZ domain 1 of 1) (human, UniProt P08515 1-218 = GST)
T10 construct: also called TX 2

[21] = target: GST-PSD95 PDZ domain fusion protein (human post-synaptic density protein 95 AA387-724; PDZ domains 1-3 of 3) (human, UniProt P08515 1-218 = GST)
[22] = target: T11, GST-NeDLG PDZ domain fusion protein (presynaptic protein sao102, neuroendocrine-dlg; PDZ domains 1-2 of 3) (UniProt P08515 1-218 = GST)
T11 construct: also called NeDLG1

[23] = target: T12, GST-TAX33 PDZ domain fusion protein (tax interaction protein 33 AA73-162; PDZ domain 1 of 1) (UniProt P08515 1-218 = GST)
T12 construct: also called TX33

[24] = target: T13, GST-SYN1a PDZ domain fusion protein (alpha1-syntrophin AA96-189; PDZ domain 1 of 1) (UniProt P08515 1-218 = GST)
T13 construct: also called SYN 1 alpha; SYNTR 1 alpha

[25] = target: T14, GST-TAX43 PDZ domain fusion protein (human tax interaction protein 43 AA15-85; PDZ domain 1 of 1) (human, UniProt P08515 1-218 = GST)
T14 construct: also called TX 43

Measured: binding result

Sequence of GST-AF6 PDZ domain fusion protein (af-6 protein AA985-1077; PDZ domain 1 of 1) (P08515 1-218, tags or fused parts left off): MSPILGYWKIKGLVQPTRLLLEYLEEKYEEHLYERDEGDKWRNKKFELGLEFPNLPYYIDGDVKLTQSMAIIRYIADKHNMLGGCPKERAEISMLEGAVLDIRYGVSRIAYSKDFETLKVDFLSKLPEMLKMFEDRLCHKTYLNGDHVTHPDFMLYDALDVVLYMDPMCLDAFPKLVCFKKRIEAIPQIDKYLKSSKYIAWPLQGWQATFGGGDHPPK
T8 sequence (P08515 1-218, tags or fused parts left off): as above
T14 sequence (P08515 1-218, tags or fused parts left off): as above
T10 sequence (P08515 1-218, tags or fused parts left off): as above
T3 sequence (P08515 1-218, tags or fused parts left off): as above
T7 sequence (P08515 1-218, tags or fused parts left off): as above
Sequence of GST-PTN-4 PDZ domain fusion protein (protein-tyrosine phosphatase meg1 AA774-862; PDZ domain 1 of 1) (P08515 1-218, tags or fused parts left off): as above
Sequence of GST-MINT3 PDZ domain fusion protein (human MINT3 AA11-52; PDZ domain 1 of 1) (P08515 1-218, tags or fused parts left off): as above
Sequence of GST-prIL16 PDZ domain fusion protein (putative interleukin 16 precursor AA170-383; PDZ domains 1-2 of 2) (P08515 1-218, tags or fused parts left off): as above
T11 sequence (P08515 1-218, tags or fused parts left off): as above
Sequence of GST-DVL1 PDZ domain fusion protein (human dishevelled segment polarity protein homolog AA248-340); PDZ domain … (P08515 1-218, tags or fused parts left off): as above
T4 sequence (P08515 1-218, tags or fused parts left off): as above
T13 sequence (P08515 1-218, tags or fused parts left off): as above
Sequence of GST-LIMK2 PDZ domain fusion protein (human LIM domain kinase 2 AA185-275; PDZ domain 1 of 1) (P08515 1-218, tags or fused parts left off): as above
T6 sequence (P08515 1-218, tags or fused parts left off): as above
T2 sequence (P08515 1-218, tags or fused parts left off): as above
T12 sequence (P08515 1-218, tags or fused parts left off): as above
Sequence of GST-PSD95 PDZ domain fusion protein (human post-synaptic density protein 95 AA387-724; PDZ domains 1-3 of 3) (P08515 1-218, tags or fused parts left off): as above
Sequence of GST-LIM PDZ domain fusion protein (Human LIM protein AA29-112; PDZ domain 1 of 1) (P08515 1-218, tags or fused parts left off): as above
Sequence of GST-NOS1 PDZ domain fusion protein (human neuronal nitric oxide synthase; PDZ domain 1 of 1) (P08515 1-218, tags or fused parts left off): as above
T9 sequence (P08515 1-218, tags or fused parts left off): as above

Biotin-SMQPDNSSDSDYDLHGAQRL [CD5 C-terminal PL peptide AA49L, biotinylated]
no binding: all assays above

Biotin-AWDDSARAAGGQGLHVTAL [LPAP C-terminal PL peptide AA30L, biotinylated]
no binding: all assays above

Biotin-LERTSSVSPSTAEPELSIVF [CC CKR-3 C-terminal PL peptide AA43L, biotinylated]
no binding: all assays above

Biotin-TIYENLAPVTTFGKTIA [CD148 C-terminal PL peptide AA55L (ends KTIA), biotinylated]
no binding: all assays above

Biotin-CAISGTSSDRGYGSPRYAEV [CLASP-4 C-terminal PL peptide AA3L-V, biotinylated]
not listed: [6] | [9] | [21] | [22]
no binding: all other assays above

Biotin-GKGKSIGRAPEASLQDKEGA [CC CKR-2 C-terminal PL peptide AA42L, biotinylated]
no binding: all assays above

Reference: patent publication US20090149339A1 (published 2009)
